Publication PMC10403546 (Nature Communications, 2023)

B1: bNAb F6 Fab (for SPR) (Fab, V domains shown)
VH: QVQLQQWGTGLLKPSETLSLTCAVYGVSLRGYYWTWIRQSPKKGLEWIGEIDEIGRTKYSQSLRSRATLSIDTSKKQFSLRLTSVTAADMATYYCARWRLMMVDEVTRHGMDVWSQGTMVTVSS
VL: DIVMTQSPLSLSVAPGEAASISCRSTQSLLNRNGDNYLEWYLRRPGRSPQLLIYLGSERALGVPDRFSGSGSGRDFTLKISRVEAQDVGTYYCLQTRQGAFTFGQGTKLEIK
B2: bNAb 8ANC195 Fab (for SPR) (Fab, V domains shown)
VH: QIHLVQSGTEVKKPGSSVTVSCKAYGVNTFGLYAVNWVRQAPGQSLEYIGQIWRWKSSASHHFRGRVLISAVDLTGSSPPISSLEIKDLTSDDTAVYFCTTTSTYDKWSGLHHDGVMAFSSWGQGTLISVSA
VL: DIQMTQSPSTLSASIGDTVRISCRASQSITGNWVAWYQQRPGKAPRLLIYRGAALLGGVPSRFSGSAAGTDFTLTIGNLQAEDFGTFYCQQYDTYPGTFGQGTKVEVK

Columns and labels:
Test in all cases: SPR
Details in all cases: both partners purified
[1] = biological target: T1, X18 UFO (CRF01_AE Env), wild type, for SPR (HIV-1 BJOX018000.e12 (X18, CRF01_AE), stabilised)
T1 construct: source: FreeStyle 293F, transient transfection (PEI), purified (GNL resin, SEC)

[2] = biological target: T2, Q769 UFO (subtype A Env of Q769_d22) (HIV-1 Q769_d22 (subtype A), UniProt Q8JDJ1, stabilised)
T2 construct: source: FreeStyle 293F, transient transfection (PEI), purified (GNL resin, SEC)

[3] = biological target: T3, X16 SOSIP-His (CRF07_BC Env trimer in SOSIP design) (HIV-1 BJOX016000.e15 (X16, CRF07_BC), UniProt A0A0E3EAD6, stabilised)
T3 construct: copies: 3 + 3

[4] = biological target: T4, X18 SOSIP-His (CRF01_AE Env trimer in SOSIP design) (HIV-1 BJOX018000.e12 (X18, CRF01_AE), UniProt A0A0E3EAY4, stabilised)
T4 construct: copies: 3 + 3

[5] = biological target: T5, BG505 SOSIP-His (subtype A Env trimer) (HIV-1 BG505 (subtype A), UniProt Q2N0S6, stabilised)
T5 construct: copies: 3 + 3

| Binder | Kd [1] [nM] | binding result [2] | binding result [3] | binding result [4] | binding result [5] |
| --- | --- | --- | --- | --- | --- |
| B1 | 0.041 | binds | – | – | – |
| B2 | – | – | binds | binds | binds |
